T1: iASPP Ank-SH3 (Homo sapiens, UniProt Q8WUF5)
T1 construct: (2) iASPP Ank-SH3 603-828; HLT tag (His tag + lipoyl domain + TEV site) (N, cleaved yes); made in house; host or cells: E. coli HMS 174 (Novagen)
T1 sequence (Q8WUF5 603-828): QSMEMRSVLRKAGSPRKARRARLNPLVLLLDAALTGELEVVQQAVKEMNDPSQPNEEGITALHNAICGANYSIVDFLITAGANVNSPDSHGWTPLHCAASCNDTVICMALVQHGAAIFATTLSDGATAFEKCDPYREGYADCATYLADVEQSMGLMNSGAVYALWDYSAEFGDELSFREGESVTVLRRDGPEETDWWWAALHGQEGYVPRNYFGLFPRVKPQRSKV

T2: HLT-iASPP Ank-SH3 (human, UniProt Q8WUF5 603-828)
T2 construct: iASPP (human), four ankyrin repeats and SH3 domain, residues 603-828, Swiss-Prot Q8WUF5; Detected on the arrays by its His tag (anti His HRP antibody); source: E. coli HMS 174, purified (Nickel Sepharose, size exclusion chromatography); not shown: HLT (His tag, lipoyl domain, TEV protease cleavage site), N-terminal, kept
T2 sequence (looked up): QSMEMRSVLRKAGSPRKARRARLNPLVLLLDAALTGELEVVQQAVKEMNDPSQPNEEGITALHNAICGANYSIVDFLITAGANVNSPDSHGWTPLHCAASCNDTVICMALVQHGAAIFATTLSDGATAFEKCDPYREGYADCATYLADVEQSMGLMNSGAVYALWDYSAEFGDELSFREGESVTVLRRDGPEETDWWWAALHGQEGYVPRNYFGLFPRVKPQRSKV

B1: iASPP Pro array peptide 324-338 (spot B23) (peptide)
peptide: Ac-SDAGSYRRSLGSAGP-{cellulose membrane (amide bond)}
modifications: also: C-terminus bound to cellulose membrane via amide
notes: iASPP (human) residues 324-338; source: synthetic peptide on CelluSpots array (INTAVIS)
B2: iASPP Pro array peptide 308-322 (spot B21) (peptide)
peptide: Ac-TLPRNYKVSPLASDR-{cellulose membrane (amide bond)}
modifications: also: C-terminus bound to cellulose membrane via amide
notes: iASPP (human) residues 308-322; source: synthetic peptide on CelluSpots array (INTAVIS)
B3: iASPP Pro array peptide 68-82 (spot A15) (peptide)
peptide: Ac-PRYSSSSIPEPFGSR-{cellulose membrane}
modifications: also: C-terminus bound to cellulose membrane via amide
notes: iASPP (human) residues 68-82; source: synthetic peptide on CelluSpots array (INTAVIS)
B4: iASPP Pro array peptide 60-74 (spot A14) (peptide)
peptide: Ac-QAGPPSRPPRYSSSS-{cellulose membrane}
modifications: also: C-terminus bound to cellulose membrane via amide
notes: iASPP (human) residues 60-74; source: synthetic peptide on CelluSpots array (INTAVIS)
B5: iASPP Pro array peptide 604-618 (spot D11) (peptide)
peptide: Ac-SMEMRSVLRKAGSPR-{cellulose membrane}
modifications: also: C-terminus bound to cellulose membrane via amide
notes: iASPP (human) residues 604-618; also called iASPP 604-618; source: synthetic peptide on CelluSpots array (INTAVIS)
B6: iASPP Pro array peptide 356-370 (spot C3) (peptide)
peptide: Ac-PSSPQPRGAPRQRPI-{cellulose membrane (amide bond)}
modifications: also: C-terminus bound to cellulose membrane via amide
notes: iASPP (human) residues 356-370; source: synthetic peptide on CelluSpots array (INTAVIS)
B7: iASPP Pro array peptide 196-210 (spot B7) (peptide)
peptide: Ac-FFPERGPSPRPPATA-{cellulose membrane (amide bond)}
modifications: also: C-terminus bound to cellulose membrane via amide
notes: iASPP (human) residues 196-210; source: synthetic peptide on CelluSpots array (INTAVIS)
B8: iASPP Pro array peptide 484-498 (spot C19) (peptide)
peptide: Ac-VARPLSPTRLQPALP-{cellulose membrane}
modifications: also: C-terminus bound to cellulose membrane via amide
notes: iASPP (human) residues 484-498; source: synthetic peptide on CelluSpots array (INTAVIS)
B9: iASPP Pro array peptide 380-394 (spot C6) (peptide)
peptide: Ac-NAFWEHGASRAMLPG-{cellulose membrane (amide bond)}
modifications: also: C-terminus bound to cellulose membrane via amide
notes: iASPP (human) residues 380-394; source: synthetic peptide on CelluSpots array (INTAVIS)
B10: iASPP Pro array peptide 172-186 (spot B4) (peptide)
peptide: Ac-PTPFDFLGRAGSPRG-{cellulose membrane (amide bond)}
modifications: also: C-terminus bound to cellulose membrane via amide
notes: iASPP (human) residues 172-186; source: synthetic peptide on CelluSpots array (INTAVIS)
B11: iASPP Pro array peptide 340-354 (spot C1) (peptide)
peptide: Ac-GTLPRSWQPVSRIPM-{cellulose membrane (amide bond)}
modifications: also: C-terminus bound to cellulose membrane via amide
notes: iASPP (human) residues 340-354; source: synthetic peptide on CelluSpots array (INTAVIS)
B12: iASPP Pro array peptide 388-402 (spot C7) (peptide)
peptide: Ac-SRAMLPGSPLFTRAP-{cellulose membrane (amide bond)}
modifications: also: C-terminus bound to cellulose membrane via amide
notes: iASPP (human) residues 388-402; source: synthetic peptide on CelluSpots array (INTAVIS)
B13: iASPP Pro array peptide 348-362 (spot C2) (peptide)
peptide: Ac-PVSRIPMPPSSPQPR-{cellulose membrane (amide bond)}
modifications: also: C-terminus bound to cellulose membrane via amide
notes: iASPP (human) residues 348-362; source: synthetic peptide on CelluSpots array (INTAVIS)
B14: iASPP Pro array peptide 156-170 (spot B2) (peptide)
peptide: Ac-APSPRPGPGPLRQQG-{cellulose membrane (amide bond)}
modifications: also: C-terminus bound to cellulose membrane via amide
notes: iASPP (human) residues 156-170; source: synthetic peptide on CelluSpots array (INTAVIS)
B15: iASPP Pro array peptide 132-146 (spot A23) (peptide)
peptide: Ac-YGSLDRATSPRPRAF-{cellulose membrane (amide bond)}
modifications: also: C-terminus bound to cellulose membrane via amide
notes: iASPP (human) residues 132-146; source: synthetic peptide on CelluSpots array (INTAVIS)
B16: iASPP Pro array peptide 148-162 (spot B1) (peptide)
peptide: Ac-GAGSSLGRAPSPRPG-{cellulose membrane (amide bond)}
modifications: also: C-terminus bound to cellulose membrane via amide
notes: iASPP (human) residues 148-162; source: synthetic peptide on CelluSpots array (INTAVIS)
B17: iASPP Pro array peptide 396-410 (spot C8) (peptide)
peptide: Ac-PLFTRAPPPKLQPQP-{cellulose membrane (amide bond)}
modifications: also: C-terminus bound to cellulose membrane via amide
notes: iASPP (human) residues 396-410; source: synthetic peptide on CelluSpots array (INTAVIS)
B18: iASPP Pro array peptide 548-562 (spot D4) (peptide)
peptide: Ac-SRLFHRHGGPGPGGP-{cellulose membrane}
modifications: also: C-terminus bound to cellulose membrane via amide
notes: iASPP (human) residues 548-562; source: synthetic peptide on CelluSpots array (INTAVIS)
B19: iASPP Pro array peptide 540-554 (spot D3) (peptide)
peptide: Ac-KKQYQQIISRLFHRH-{cellulose membrane}
modifications: also: C-terminus bound to cellulose membrane via amide
notes: iASPP (human) residues 540-554; source: synthetic peptide on CelluSpots array (INTAVIS)

cellulose membrane = C-terminus attached to a cellulose membrane (CelluSpots array) through an amide bond

In the first assay the target is T1, iASPP Ank-SH3. Description: Fluorescence anisotropy binding of fluorescein-labeled iASPP Pro derived peptides to iASPP Ank-SH3. Particulars: 250 μM iASPP Ank-SH3 titrated into 100 nM fluorescein-labeled peptide, 10 °C, 20 mM Hepes pH 7.3, ionic strength 50 mM. Here is the method: Binding of the iASPP Pro-derived peptides to iASPP Ank-SH3 was measured by fluorescence anisotropy using a PerkinElmer Life Sciences LS-50b spectrofluorimeter equipped with a Hamilton microlab M dispenser. Titration of iASPP Ank-SH3 into iASPP Pro derived fluorescein-labeled (FL) peptides was performed at 10 °C in 20 mM Hepes buffer, pH 7.3, 43 mM NaCl (total ionic strength = 50 mM), 10% glycerol and 5 mM β-mercaptoethanol. The excitation wavelength was set at 480 nm and the emission measured at 530 nm. The labeled peptide, dissolved in 1 ml buffer to a final concentration of 100 nM, was placed in the cuvette. 250 μM iASPP Ank-SH3 was placed in the dispenser and aliquots of 10–20 μl were added at 1.5 min intervals. The solution was then stirred for 30 sec, and the fluorescence and anisotropy were measured. Data were analyzed using the program Origin8 (OriginLab) and were fit to 1:1 binding model:
[drawing 1] (R- measured fluorescence anisotropy, R0- anisotropy value corresponding to the free peptide, ∆R- amplitude of the fluorescence anisotropy change, [Protein]- protein concentration, Kd- dissociation constant).
(In general: In fluorescence polarisation assays a small probe gives low polarisation when free and higher when bound to something large.)
As to “APSPRPGPGPLRQQG [iASPP 156-170, iASPP Pro derived peptide, residues 156-170]”, the “binding to iASPP Ank-SH3 (in words)” value is “no binding”.
Same read-out and setting: next, “PLFTRAPPPKLQPQP [iASPP 396-410, iASPP Pro derived peptide, residues 396-410]”: “too weak to quantify”; “PRYSSSSIPEPFGSR [iASPP 68-82, iASPP Pro derived peptide, residues 68-82]”: “no binding”.
“TLPRNYKVSPLASDR [iASPP 308-322, iASPP Pro derived peptide, residues 308-322]”: the “binding to iASPP Ank-SH3 (in words)” value is listed as “no binding”.
The same measure, in the same setting: next, “FFPERGPSPRPPATA [iASPP 196-210, iASPP Pro derived peptide, residues 196-210]”: “no binding”; “YGSLDRATSPRPRAF [iASPP 132-146, iASPP Pro derived peptide, residues 132-146]”: “too weak to quantify”; “SDAGSYRRSLGSAGP [iASPP 324-338, iASPP Pro derived peptide, residues 324-338]”: “no binding”.
On the same count and under the same terms, the same measure for “VARPLSPTRLQPALP [iASPP 484-498, iASPP Pro derived peptide, residues 484-498]”: “too weak to quantify”; for “PTPFDFLGRAGSPRG [iASPP 172-186, iASPP Pro derived peptide, residues 172-186]”: “too weak to quantify”.

The next assay deals with T2, HLT-iASPP Ank-SH3. Description: peptide or protein array; CelluSpots array of 79 partly overlapping 15-residue iASPP Pro peptides on cellulose; 5 uM HLT-iASPP Ank-SH3 in 20 mM phosphate pH 7.0, ionic strength 150 mM, 5 mM βME, 10% glycerol, 2.5% skimmed milk; 4 °C overnight; detected with anti His HRP antibody. Particulars: both partners purified.
B1: the binding result is listed as “binds”.
Still for that read-out and setting: the same measure for B2: “binds”; for B3: “binds”.
On the same count and under the same terms, the same measure for B4: “binds”.
As for B5, the binding result was “binds”.
Still for that read-out and setting: the same measure for B6: “binds”; for B7: “binds”.
Same read-out and setting: next, B8: “binds”; B9: “binds”; B10: “binds”.
Turning to B11, the binding result is “binds”.
The same measure, in the same setting: the same measure for B12: “binds”; for B13: “binds”.
On the same count and under the same terms, next, B14: “binds”; B15: “binds”; B16: “binds”.
On the same count and under the same terms, the same measure for B17: “binds”.
As to B18, the binding result is recorded as “binds”.
Still for that read-out and setting: next, B19: “binds”.

The values are drawn from article PMC4486954, “Highly homologous proteins exert opposite biological activities by using different interaction interfaces” (Scientific Reports, 2015).
